From publication PMC4773448, “Isolation and Characterization of a Novel Cold-Adapted Esterase, MtEst45, from Microbulbifer thermotolerans DAU221” (Frontiers in Microbiology, 2016)

Substrate: CCCC(=O)Oc1ccc([N+](=O)[O-])cc1
Experiment: purified protein
Format: biochemical, Microbulbifer thermotolerans
Conditions: 20 mM Tris-HCl pH 8.17, 46.27 °C, 0.1-1 mM substrate

B1: MtEst45 (Microbulbifer thermotolerans) (protein)
chain: APRFISNLDIISFDGTELDANLFVPDTPPPDGGYPTVLFTNSWALDKHQYLLQAKALAEKGYLVMSYSTRGFGKSGGLVDVAGDNTLADTRVLIDWLEANYPVGKLGMAGISYGAGISLLTAAADSRVDAVAALSGWSDVVEGLYPNNTVNLVWGTLLVNTAFKREPIVDQIWSNLRNGHNLSDVFTFSASRSALSYVDALNANGTAVLLSNNFADYLFKPNSTIDLYTLLEGPKKLLLNPGTHAVTETLGGNGGHIWTTSFRWFDRYLKGENNGIDREPKVDMTVRISNRLEQFDDFPVTGKQSHWYLHPRLTYFGNGQLKSNPYSGWRWSNQFHSGADTAAGTGIPLVSDALEGLGIPVYTFMPAINGYYAIEYQSPLLWNGMKIRGTPTLEMWITPSKPEVQLHLHLYDTGPLGMGRLITHAPITLRNAQVGREQKIDVEFFTTSYDVPAGHRVTLAIDTEGLIYQKPADTDYEITVPYRSDRVSKLAIPQL
notes: mature form without 21-residue signal peptide (495 aa of 516); N-terminal His6 (pCold I), E. coli BL21(DE3), tag not reported cut; about 45 kDa on SDS-PAGE
Km: 99.8 µM
